Data set [1] can be described thus: analytical gel filtration (Superdex200), apparent molecular weight. It counts as physicochemical. An excerpt: In the fusion protein of GLP-1(A8G/G22E)-Fn8-COL18NC1 described in example 4, the flexible unstructured linker between Fn8 and COL18NC1 contains six residues (GGGSGG; SEQ ID NO:89). To generate the flexible un-structured linkers with different lengths, we have synthesized the genes GLP-1(A8G/G22E/R36S)-Fn8-COL18NC1-20, GLP-1(A8G/G22E/R36S)-Fn8-COL18NC1-30, GLP-1(A8G/G22E/R36S)-Fn8-COL18NC1-54 and GLP-1(A8G/G22E/R36S)-Fn8-COL18NC1-60. In these genes, the length of the flexible unstructured polypeptide linker between Fn8 and COL18NC1 contained 20, 30, 54 and 60 residues, respectively. The protein sequences of GLP-1(A8G/G22E/R36S)-Fn8-COL18NC1-20, GLP-1(A8G/G22E/R36S)-Fn8-COL18NC1-30, GLP-1(A8G/G22E/R36S)-Fn8-COL18NC1-54 and GLP-1(A8G/G22E/R36S)-Fn8-COL18NC1-60 are listed as SEQ ID NO:8-11. The synthetic genes of GLP-1(A8G/G22E/R36S)-Fn8-COL18NC1-20, GLP-1(A8G/G22E/R36S)-Fn8-COL18NC1-30, GLP-1(A8G/G22E/R36S)-Fn8-COL18NC1-54 and GLP-1(A8G/G22E/R36S)-Fn8-COL18NC1-60 were grafted to the pET29b by NdeI and XhoI for protein expressions. The expression and purification of these fusion proteins were carried out using similar protocols described in example 3. To estimate the hydrodynamic radius and/or the Rg of the fusion proteins, the purified proteins were loaded on an analytical gel filtration column Superdex200 (GE Healthcare).
Moreover, the flexible unstructured linker between the therapeutic polypeptide and the scaffold protein may adjust the hydrodynamic radius and/or the Rg of the fusion molecule in a tunable manner.
The apparent molecular weights of the fusion proteins were estimated by use of an analytical gel filtration column Superdex-200 (GE Healthcare) mounted on the AKTA FPLC system (GE Healthcare). The purified fusion proteins GLP-1-Fn8, GLP-1-Fn8-COL18NC1, GLP-1(A8G/G22E/R36G)-Fn8-p246-COL18NC1 were loaded on the Superdex200 column. GLP-1-Fn8 is a fusion protein of GLP-1 and Fn8 and contains the first 144 amino acid residues of the fusion protein GLP-1-Fn8-COL18NC1 (SEQ ID NO:2). […] The genuine molecular weights for the fusion proteins GLP-1-Fn8 monomer, GLP-1-Fn8-COL18NC1 trimer, and GLP-1(A8G/G22E/R36G)-Fn8-p246-COL18NC1 trimer were ˜15 Kd, 65 Kd and 123Kd, respectively.
(In general: SEC sorts molecules by how far they enter the pores of the column.)

Data set [2] addresses human GLP-1 receptor (GLP-1R) (human, UniProt P43220 24-463). Kind of data set: cell-based or functional assay.
A short description of data set [3]: pharmacokinetics in Sprague-Dawley rats, sandwich ELISA (Example 6). It is filed as in vivo. The settings on record: Sprague-Dawley rat, intraperitoneal, 0.66/0.72/0.75/0.78 mg/kg respectively. On the procedure:
To evaluate the pharmacokinetics profiles for the GLP-1 containing fusion proteins generated using the method of the invention, we purified GLP-1(A8G/G22E/R36S)-Fn8-COL18NC1, GLP-1(A8G/G22E/R36S)-Fn8-COL18NC1-20, GLP-1(A8G/G22E/R36S)-Fn8-COL18NC1-30, GLP-1(A8G/G22E/R36S)-Fn8-COL18NC1-54 in PBS buffer, pH 7.2. These fusion proteins were administered on Sprague-Dawley (SD) rats by intraperitoneal injections at the doses of 0.66 mg/kg, 0.72 mg/kg, 0.75 mg/kg, 0.78 mg/kg animal respectively. Blood samples were taken at various time points after injections such as 0-min, 30-min, 1-hour, 2-hour, 4-hour, 8-hour, 24-hour, 48-hour, 3-day, 4-day, 5-day. 7-day, 10-day. The serum samples were centrifuged and kept at −80° C. freezer.
(§1) The GLP-1 concentrations within the serum samples were examined by use of the sandwich ELISA method. The rabbit polyclonal antibody against human Fibronectin at the concentration of 3 ug/ml (Ab299, Abcam company) was coated on ELISA plate for 1 hour at room temperature. Then the plate was washed by PBST buffer three times and the wells were blocked by PBS with 10% FBS for 1 hour at room temperature. The plate was washed three times before the serum samples containing GLP-1 fusion proteins were added. The serum samples could be diluted to 20-10000 folds before use. The ELISA plate was incubated with the serum samples at room temperature for 1 hour and then washed by PBST buffer five times. Then mouse monoclonal against human GLP-1 peptide antibody (sc57510, Santa Cruz Biotechology) at the concentration of 1 ug/ml in PBST buffer was added to the wells. The plate was washed extensively after incubation of 1 hour at room temperature. The secondary antibody, […] HRP conjugated antibody (Beijing ZSGB-Bio company, ZB 5301), was added into the wells and the color was developed using TMB (3,3′,5,5′-tetramethylbenzidine, BD Biosciences, Cat 555214). The plate reader (Bio-Rad microplate reader Model 680) was utilized to obtain the OD450 readings. This method has been calibrated using purified proteins first.
The pharmacokinetics parameters were obtained by using the WinNonlin software (Table 3).
In general terms: An ELISA detects its analyte on a solid surface through an enzyme-linked reagent.

A short description of data set [4]: pharmacokinetics in SD rats, sandwich ELISA (Example 15). It is filed as in vivo, SD (Sprague-Dawley) rats. The following applies: intraperitoneal, 5 nmol/kg. On the procedure: To evaluate the pharmacokinetics profiles for the GLP-1 containing fusion proteins generated using the method of the invention, we purified the recombinant fusion proteins of GLP-1-Fn8-COL18NC1, GLP1(A8G/G22E/R36G)-Fn8-p246-COL18NC1 and GLP1(A8G/G22E/R36G)-Fn8-p285-COL18NC1 in PBS buffer, pH 7.2. These fusion proteins were administered into SD (Sprague-Dawley) rats by intraperitoneal injections at the dose of 5 nmol/kg for animals, respectively. Blood samples were taken at various time points after injections such as 0-min, 30-min, 1-hour, 2-hour, 4-hour, 6-hour, 8-hour, 24-hour, 48-hour, 3-day, 4-day, 5-day, 6-day and 7-day. The serum samples were centrifuged and kept at −80° C. freezer.
as §1, with “within the samples were” for “within the serum samples were”, “Santa Cruz Biotechnology) at the” for “Santa Cruz Biotechology) at the”
The pharmacokinetics parameters were obtained by using the WinNonlin software (Table 5).

B1: GLP-1(A8G/G22E/R36S)-Fn8-COL18NC1 (ligand)
chain: HGEGTFTSDVSSYLEEQAAKEFIAWLVKGSGGGGSGGGGSAVPPPTDLRFTNIGPDTMRVTWAPPPSIDLTNFLVRYSPVKNEEDVAELSISPSDNAVVLTNLLPGTEYVVSVSSVYEQHESTPLRGRQKTGGGGSGGGASSGVRLWATRQAMLGQVHEVPEGWLIFVAEQEELYVRVQNGFRKVQLEARTPLPRG
Consider B1, for which the apparent molecular weight in data set [1] was around 100 Kd. In addition, in data set [2], the “EC50 (nM) measured by cAMP assay” value worked out at 1.3 nM.

B2: GLP-1-Fn8: fusion protein of GLP-1 and Fn8, first 144 residues of SEQ ID NO:2; monomer in solution (protein)
chain: HAEGTFTSDVSSYLEGQAAKEFIAWLVKGRGGGGSGGGGSAVPPPTDLRFTNIGPDTMRVTWAPPPSIDLTNFLVRYSPVKNEEDVAELSISPSDNAVVLTNLLPGTEYVVSVSSVYEQHESTPLRGRQKTGGGGSGGGASSGV
For the molecule B2, the apparent molecular weight in data set [1] was around 20 Kd.

B3: GLP-1(A8G/G22E/R36S)-Fn8-COL18NC1-60 (ligand)
chain: HGEGTFTSDVSSYLEEQAAKEFIAWLVKGSGGGGSGGAVPPPTDLRFTNIGPDTMRVTWAPPPSIDLTNFLVRYSPVKNEEDVAELSISPSDNAVVLTNLLPGTEYVVSVSSVYEQHESTPLRGRQKTGGGGSGGGSGGGSTASSASTKGPSGGGSGGGSGGGSAPSSKSTSGGTAAGGGSGGGSGGGSGASSGVRLWATRQAMLGQVHEVPEGWLIFVAEQEELYVRVQNGFRKVQLEARTPLPRG
Regarding B3, the apparent molecular weight in data set [1] is around 200 Kd. Besides, the “EC50 (nM) measured by cAMP assay” value in data set [2] stood at 0.5 nM.

B4: GLP-1(A8G/G22E/R36S)-Fn8-COL18NC1-30 (ligand)
chain: HGEGTFTSDVSSYLEEQAAKEFIAWLVKGSGGGGSGGAVPPPTDLRFTNIGPDTMRVTWAPPPSIDLTNFLVRYSPVKNEEDVAELSISPSDNAVVLTNLLPGTEYVVSVSSVYEQHESTPLRGRQKTGGGGGSGGGGSASSASTGGPSGGGGSGGGGSGASSGVRLWATRQAMLGQVHEVPEGWLIFVAEQEELYVRVQNGFRKVQLEARTPLPRG
The AUC(0-t) is exposure summed from dosing to a finite time, without extrapolation to infinity. As usually defined, the Cmax is the maximum level reached in the sampled fluid or tissue. As for B4, in data set [3], the “AUC(0-t)” value worked out at 47580 ng·h/mL, the AUCinf was 47600 ng·h/mL, the CL was 0.7673 mL/min/kg and the Cmax was 2150 ng/mL. In data set [3], this molecule showed a T½ of 7.22 h and a V of 0.47981 L/kg. In addition, in data set [1], the apparent molecular weight entry is reported as “larger apparent molecular weight than their genuine molecular weight”. Besides, in data set [2], the “EC50 (nM) measured by cAMP assay” value came out at 1.3 nM.

B5: GLP-1(A8G/G22E/R36S)-Fn8-COL18NC1-54 (ligand)
chain: HGEGTFTSDVSSYLEEQAAKEFIAWLVKGSGGGGSGGAVPPPTDLRFTNIGPDTMRVTWAPPPSIDLTNFLVRYSPVKNEEDVAELSISPSDNAVVLTNLLPGTEYVVSVSSVYEQHESTPLRGRQKTGGGGGSGGGGSTASSASTGGPSGGGGSGGGGSAPSSGSTSGGTAAGGGGSGGGGSGASSGVRLWATRQAMLGQVHEVPEGWLIFVAEQEELYVRVQNGFRKVQLEARTPLPRG
On to B5, for which, in data set [3], the “AUC(0-t)” value came out at 86640 ng·h/mL, the AUCinf came to 86670 ng·h/mL, the CL came to 0.451 mL/min/kg and the peak concentration (Cmax) was 2640 ng/mL. Besides, in data set [3], the T½ was determined as 9.10 h and the V was 0.35086 L/kg. Moreover, the apparent molecular weight in data set [1] is reported as around 200 Kd. Further, the “EC50 (nM) measured by cAMP assay” value in data set [2] turned out to be 0.5 nM.

B6: GLP1(A8G/G22E/R36G)-Fn8-p285-COL18NC1: fusion with Fn8, pCloud p285 and COL18NC1; SEQ ID NO: 23 (protein)
chain: HGEGTFTSDVSSYLEEQAAKEFIAWLVKGGGSGGGSGGGSGGGSGGGSGSGGAVPPPTDLRFTNIGPDTMRVTWAPPPSIDLTNFLVRYSPVKNEEDVAELSISPSDNAVVLTNLLPGTEYVVSVSSVYEQHESTPLRGRQKTGGGGSGGGSGSGSESGSGGGSTSSGTGSETESPGSGSESGSGPSSAGSGSGSESGSGSGSSGPGSTGGSGSESGSGPGSSGTGGTATGSGSESGSGPGSSGPGSTGSGSGSESGSGSGSSGTGSTGGSGSESGSGPGSPRPGSTGTGSGSESGSGPGSSERGSAGGSGSESGSGTSESSASGSTGGSGSESGSGSESGSGSGSESGSGPESPGSGGSGSESGSGTSGSTGSGSESGSGPGSSGPGSTGSGSGSESGSGSGSSGTGSTGGSGSESGSGGGSGGGSGGGASSGVRLWATRQAMLGQVHEVPEGWLIFVAEQEELYVRVQNGFRKVQLEARTPLPRG
The CL/F is the apparent clearance, not corrected for the fraction that reaches the circulation. For B6, in data set [4] (Rats), the AUCall came out at 475300 ng·h/mL, the CL/F was 0.0228 mL/min/kg, the Cmax worked out at 7980 ng/mL and the T½ came out at 31.2 h. Moreover, the Vss in data set [4] (Rats) worked out at 0.062 L/kg. Besides, the half life in data set [4] (SD rats) turned out to be 31.2 h.

The record behind these values is patent publication US10246503B2, “Method of improving the pharmacokinetic profile of a therapeutic polypeptide and the use thereof” (BEIJING ANXINHUAIDE BIOTECH. CO., LTD, priority 2012, dated 2019).
